T1: VEGF165 (Homo sapiens, UniProt P15692)
T1 sequence (P15692 27-191 isoform P15692-4): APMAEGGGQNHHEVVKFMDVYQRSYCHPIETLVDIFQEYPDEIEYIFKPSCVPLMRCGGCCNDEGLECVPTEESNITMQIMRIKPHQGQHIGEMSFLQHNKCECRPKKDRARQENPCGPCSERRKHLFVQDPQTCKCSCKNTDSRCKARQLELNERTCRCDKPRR


Columns and labels:
[1] = tested on: Murine Lewis lung cancer cell lines; test: VEGF inhibition in vivo, ND-GFP nude mice with Lewis lung cancer footpad implant; conditions: for capillary growth around the tumor (vessel density): 27 μg vNAR i.p. twice per week, 6 doses over 18 days, vs untreated controls; for Normalized tumor weight / reduction of the tumor (weight), statistical significance: after day 18, 27 μg vNAR i.p., 6 doses; for Normalized tumor weight: n=8, PBS = 1.0 (100%); for reduction of the tumor (weight), statistical significance: vs PBS
Experimental: In vivo tests were conducted at AntiCancer, Inc. (San Diego, Calif., USA) in accordance with its protocols for handling animals approved under Assurance #A3873-1, and also approved by the Bioethics Committee of the Center for Scientific Research and Higher Education of Ensenada, Baja California (CICESE), approval number 2014/03. In order to minimize the suffering of the animals, anesthesia and analgesics were used for all surgical experiments. Animals were anesthetized by subcutaneous injection of a solution of 0.02 ml of ketamine 20 mg/kg, 15.1 mg/kg xylazine, and 0.48 mg/kg of acepromazine maleate. Animals responses during surgery were monitored to ensure adequate depth of anesthesia. The animals were observed daily and humanely sacrificed through CO2 inhalation when they met the following endpoint criteria: severe tumor burden (more than 20 mm in diameter), prostration, significant body weight loss, difficulty breathing, rotational motion, and body temperature drop. Animals were housed in a barrier facility, on a high-efficiency particulate arrestance-filtered rack under standard conditions of light/dark cycles of 12 hours. Animals were fed an autoclaved laboratory rodent diet. Eight nestin-driven GFP (ND-GFP) mice were used [Amoh Y, Yang M, Li L, Reynoso J, Bouvet M, Moossa A R, Katsuoka K, Hoffman R M. Nestin-driven green fluorescent protein transgenic nude mouse for imaging human tumor angiogenesis. Cancer Res. 2005; 65: 5352-5357], individuals from 6 to 10 weeks old were used per group. ND-GFP mice expressed GFP in nascent blood vessels. Murine Lewis lung cancer cell lines, stably transfected with red fluorescent protein (RFP) were used for implantation of foot cancer cells in the plantar pad (5×10^5 cells in 25 μl). The treatment began 3 days after implantation of cancer cells. All vNARs were administered intraperitoneally (i.p.) twice per week for a total of 6 doses over 18 days; each administration contained 27 μg of VNAR in 180 μl of PBS. After day 18, the implanted footpad of the mice in each group was imaged for GFP-expressing blood vessels. The vessel density was calculated as the total length of the blood vessels divided by the observed area. Each individual tumor was collected and, the weighed (g).

VEGF165 = target: T1, VEGF165; test: ELISA test recognition; type: binding; conditions: ELISA plates coated with VEGF165; compared with parental V13
Experimental: Decreasing concentrations of each vNAR were added to measure the recognition of VEGF compared to V13, which is the parental antibody.
ELISA plates were coated with the same amount of VEGF165; then, the wells were blocked with 3% BSA, several dilutions of clones P98Y and R97A, and the parental sequence (V13) were added.

[2] = tested on: human umbilical vein endothelial cells (HUVEC) expressing GFP and normal human dermal fibroblasts (NHDF); test: Angiogenesis assay (vascular tube formation, HUVEC/NHDF co-culture); type: cell-based; conditions: VEGF 4 ng/ml; vNAR at eight concentrations
Experimental: In the vascular tube formation assay, a co-culture system of human umbilical vein endothelial cells (HUVEC) expressing GFP and normal human dermal fibroblasts (NHDF) was used. For cell seeding on day 0, one cryogenic vial of NHDF cells was thawed and resuspended in 12 ml of complete seeding medium. Then, 100 μl of this solution was added per well of a 96-well plate. The cells were incubated at room temperature for 1 hour. Then, 1 cryogenic vial of HUVECs was thawed and resuspended in 12 ml of complete seeding medium. HUVEC (100 μL per well) were seeded into the same plate as NHDFs. The cells were incubated at room temperature for another hour. The plate was then examined in an IncuCyte ZOOM and scanned using the “FOIL” scan type. After 24 hours, the culture medium was replaced with 150 μl of growth medium.
Forty-eight hours after seeding, the cells were treated with VEGF at 4 ng/ml and the test compounds at eight concentrations.
Serial dilutions of the compounds were prepared using assay media containing VEGF up to the final concentrations in FIG. 3. Then, 150 μl of medium containing the vNARs were added. In untreated wells, media without VEGF were added. For wells without compound, media with VEGF was added. […]
The formation of vessel tubes by fluorescently-labeled HUVECs was measured using live-cell imaging, and the effects of the vNARs on this process were assessed.

| Molecule | capillary growth around the tumor (vessel density) [1] | Normalized tumor weight [1] | reduction of the tumor (weight), statistical significance [1] | reduction of the tumor (weight), statistical significance ([1]; listed as SEQ ID NO:1) | recognition of VEGF (VEGF165) | inhibition of angiogenesis (tube length and network branching) [2] |
| --- | --- | --- | --- | --- | --- | --- |
| P98Y: anti-VEGF vNAR protein, P98Y mutation in CDR3 of parental V13; corresponds to SEQ ID NO:1 (protein, Artificial sequence against VEGF, with single mutation in the CDR3 region from a parenteral vNAR sequence.) ASLDQTPRTATRETGESLSINCVLTDTSHILFGTKWLWNNPGSTDWESITIGGRYAESVNNQAKSFSLQIKDLTVEDSGTYYCKAQTIGRRKNLLPRYLVNGIAAMGYSSSDYDGAGTVLTVN | reduced capillary growth around the tumor | 0.71 | statistically significant reduction of the tumor | allows reducing the size of the tumor masses | greater recognition of VEGF than the parental | especially potent inhibitors of angiogenesis |
| R97A: anti-VEGF vNAR mutant, R97A mutation in CDR3 of parental V13 (protein) ASLDQTPRTATRETGESLSINCVLTDTSHILFGTKWLWNNPGSTDWESITIGGRYAESVNNQAKSFSLQIKDLTVEDSGTYYCKAQTIGRRKNLLPAPLVNGIAAMGYSSSDYDGAGTVLTVN | comparable with parental v13 VNAR | 0.76 |  |  |  |  |

Reference: patent US11155612B2, “vNAR antibody which binds VEGF for use in dogs or cats” (CENTRO DE INVESTIGACIÓN CIENTÍFICA Y DE EDUCACIÓN SUPERIOR …, priority 2017, dated 2021)
